Values joined by “and” are separate entries in the source; they are usually repeats but may differ in a detail not shown here. Identical values can stand only once.
T1: Merkel cell polyomavirus T antigen (common to large and small T antigen) peptide on HLA-A*02:01 (human)
T1 peptide: KLLEIAPNC

T2: Merkel cell polyomavirus T antigen (common to large and small T antigen) peptide on HLA-A*02:01 (human)
T2 peptide: KLLEIAPNC

T3: Merkel cell polyomavirus T antigen KLL epitope homolog (C-terminal cysteine replaced by alanine) peptide on … (human)
T3 peptide: KLLEIAPNA

B1: w876 clonotype 14 (TCR)
alpha TRAV12-1*01 TRAJ27*01 CDR3: CVVPSAGKSTF
beta TRBV2*03 TRBJ2-5*01 CDR3: CASSEFAGQETQYF
B2: w876 clonotype 6 (TCR)
alpha TRAV12-1*01 TRAJ3*01 CDR3: CVVPLYSSASKIIF
beta TRBV6-1*01 TRBJ1-1*01 CDR3: CASSDTPDLNTEAFF
B3: w876 clonotype 1 (TCR)
alpha TRAV12-1*01 TRAJ45*01 CDR3: CVVGEYSGGGADGLTF
beta TRBV28*01 TRBJ2-1*01 CDR3: CAIRAGASYNEQFF
B4: w876 clonotype 20 (TCR)
alpha TRAV10*01 TRAJ45*01 CDR3: CVVSAGINGADGLTF
beta TRBV12-4*01 TRBJ2-1*01 CDR3: CASSPWDEQFF
B5: w678 clonotype 5 (TCR)
alpha TRAV38-1*01 TRAJ43*01 CDR3: CAFRVSHDMRF
beta TRBV10-2*01 TRBJ2-3*01 CDR3: CASSSGNPSTDTQYF
B6: w876 clonotype 13 (TCR)
alpha TRAV12-1*01 TRAJ45*01 CDR3: CVVTDTSGGGADGLTF
beta TRBV7-2*04 TRBJ2-3*01 CDR3: CASSLAGLAGTDTQYF
B7: w876 clonotype 16 (TCR)
alpha TRAV38-1*01 TRAJ23*01 CDR3: CAYNQGGKLIF
beta TRBV19*01 TRBJ2-1*01 CDR3: CASSTLSGTHNEQFF
B8: w876 clonotype 18 (TCR)
alpha TRAV14 TRAJ13*01 CDR3: CAMREAQSGGYQKVTF
beta TRBV12-4*01 TRBJ2-3*01 CDR3: CASSFGSGTKDTQYF
B9: w683 clonotype 1 (TCR)
alpha TRAV12-1*01 TRAJ45*01 CDR3: CVVALYSGGGADGLTF
beta TRBV6-5*01 TRBJ1-2*01 CDR3: CASRSQNYYGYTF
B10: w830 clonotype 3 (TCR)
alpha TRAV38-1*01 TRAJ34*01 CDR3: CAYPSTDKLIF
beta TRBV19*01 TRBJ1-5*01 CDR3: CASSILGASNQPQHF
B11: w830 clonotype 4 (TCR)
alpha TRAV12-1*01 TRAJ43*01 CDR3: CVLNNNDMRF
beta TRBV19*01 TRBJ1-5*01 CDR3: CASSILGASNQPQHF
B12: w876 clonotype 8 (TCR)
alpha TRAV12-1*01 TRAJ3*01 CDR3: CVVYASKIIF
beta TRBV6-1*01 TRBJ1-1*01 CDR3: CASSDTPDLNTEAFF
B13: w876 clonotype 9 (TCR)
alpha TRAV12-1*01 TRAJ43*01 CDR3: CVGNNNDMRF
beta TRBV10-3*01 TRBJ2-2*01 CDR3: CAISARDQNTGELFF
B14: MCC1 (TCR, V domains shown)
Valpha: RKEVEQDPGPFNVPEGATVAFNCTYSNSASQSFFWYRQDCRKEPKLLMSVYSSGNEDGRFTAQLNRASQYISLLIRDSKLSDSATYLCVVATYSGGGADGLTFGKGTHLIIQP
Vbeta: DAGITQSPRYKITETGRQVTLMCHQTWSHSYMFWYRQDLGHGLRLIYYSAAADITDKGEVPDGYVVSRSKTENFPLTLESATRSQTSVYFCASSSGNPSTDTQYFGPGTRLTVL
B15: w876 clonotype 26 (TCR)
alpha TRAV12-1*01 TRAJ45*01 CDR3: CVVYTGYSGGGADGLTF
beta TRBV13*02 TRBJ2-1*01 CDR3: CASSSGTSGGLNYNEQFF
B16: w876 clonotype 11 (TCR)
alpha TRAV12-1*01 TRAJ45*01 CDR3: CVVYTGYSGGGADGLTF
beta TRBV10-3*01 TRBJ2-2*01 CDR3: CAIHEGDSNTGELFF
B17: w678 clonotype 1 (TCR)
alpha TRAV12-1*01 TRAJ43*01 CDR3: CVLNNNDMRF
beta TRBV10-3*01 TRBJ2-2*01 CDR3: CAIRQFDANTGELFF
B18: w876 clonotype 12 (TCR)
alpha TRAV3*01 TRAJ40*01 CDR3: CAVRDNSGTYKYIF
beta TRBV7-2*04 TRBJ2-3*01 CDR3: CASSLAGLAGTDTQYF
B19: w683 clonotype 2 (TCR)
alpha TRAV12-1*01 TRAJ43*01 CDR3: CVLNNNDMRF
beta TRBV6-5*01 TRBJ1-2*01 CDR3: CASRSQNYYGYTF
B20: w876 clonotype 2 (TCR)
alpha TRAV12-1*01 TRAJ45*01 CDR3: CVVTEYSGGGADGLTF
beta TRBV10-3*01 TRBJ2-2*01 CDR3: CASRGQNTGELFF
B21: w876 clonotype 10 (TCR)
alpha TRAV12-1*01 TRAJ37*02 CDR3: CVVYGSSNTGKLIF
beta TRBV10-3*01 TRBJ2-2*01 CDR3: CAIRRQDQNTGELFF
B22: w678 clonotype 3 (TCR)
alpha TRAV12-1*01 TRAJ45*01 CDR3: CVVATYSGGGADGLTF
beta TRBV19*01 TRBJ2-1*01 CDR3: CASSIIAGSSYNEQFF
B23: w876 clonotype 23 (TCR)
alpha TRAV12-3*01 TRAJ57*01 CDR3: CAMSVAQGGSEKLVF
beta TRBV6-6*01 TRBJ2-7*01 CDR3: CASSYQIGLSYEQYF
B24: w830 clonotype 5 (TCR)
alpha TRAV12-1*01 TRAJ43*01 CDR3: CVVNANDMRF
beta TRBV10-3*01 TRBJ2-2*01 CDR3: CAIRARDQNTGELFF
B25: w876 clonotype 19 (TCR)
alpha TRAV12-1*01 TRAJ45*01 CDR3: CVVYTGYSGGGADGLTF
beta TRBV10-2*01 TRBJ2-2*01 CDR3: CASSGQNTGELFF
B26: w876 clonotype 3 (TCR)
alpha TRAV19*01 TRAJ40*01 CDR3: CALGGGTFTSGTYKYIF
beta TRBV9*02 TRBJ2-2*01 CDR3: CASSVEDYTGELFF
B27: w876 clonotype 27 (TCR)
alpha TRAV3*01 TRAJ11*01 CDR3: CALTGYSTLTF
beta TRBV19*01 TRBJ2-1*01 CDR3: CASRSQLAVLNEQFF
B28: w876 clonotype 21 (TCR)
alpha TRAV3*01 TRAJ40*01 CDR3: CAVRDNSGTYKYIF
beta TRBV13*02 TRBJ2-1*01 CDR3: CASSSGTSGGLTYNEQFF
B29: w830 clonotype 2 (TCR)
alpha TRAV38-1*01 TRAJ27*01 CDR3: CALTSGSRLTF
beta TRBV19*01 TRBJ1-5*01 CDR3: CASSIMLYSNQPQHF
B30: w876 clonotype 29 (TCR)
alpha TRAV12-1*01 TRAJ3*01 CDR3: CVVPLYSSASKIIF
beta TRBV10-2*01 TRBJ2-2*01 CDR3: CASSVLNTGELFF
B31: w876 clonotype 4 (TCR)
alpha TRAV12-1*01 TRAJ45*01 CDR3: CVVYTGYSGGGADGLTF
beta TRBV10-2*01 TRBJ2-2*01 CDR3: CASSVLNTGELFF
B32: w678 clonotype 2 (TCR)
alpha TRAV38-1*01 TRAJ43*01 CDR3: CAFRVSHDMRF
beta TRBV19*01 TRBJ2-1*01 CDR3: CASSIIAGSSYNEQFF
B33: w876 clonotype 17 (TCR)
alpha TRAV12-1*01 TRAJ37*02 CDR3: CVVYGSSNTGKLIF
beta TRBV7-2*04 TRBJ2-1*01 CDR3: CASSLAGLANNEQFF
B34: w876 clonotype 5 (TCR)
alpha TRAV38-1*01 TRAJ23*01 CDR3: CAYNQGGKLIF
beta TRBV10-2*01 TRBJ2-2*01 CDR3: CASSVLNTGELFF

Experiments:
[1] = biological target: T1, Merkel cell polyomavirus T antigen …; test: IFN-g ELISA; COS-7 given HLA-A*02:01 and tLTAg plasmids (antigen processed); T cell clone or line
Procedure: IFN-γ in cell culture supernatants was assayed by ELISA according to manufacturer's recommendations (Human IFN gamma ELISA Ready-SET-Go Kit, affymetrix). […] Supernatants were assayed by ELISA as described above. […] After incubating for 24 hours, wells were transfected using FuGENE HD (Promega) at a 6:1 ratio of transfection reagent to DNA with 25 ng HLA-A*02:01 and limiting dilution of pDEST103-GFP-tLTAg (25-0.08 ng) plus irrelevant DNA (pcDNA-6/myc-His C, Gateway) to a total of 25 ng. 48 hours after transfection, 10^4 viable KLL-specific T cells in TCM were added to target wells in duplicate. […] Transfected COS-7 cells were harvested at 48 and 72 hours post-transfection to quantitate transfection efficiency by flow cytometry.

[2] = biological target: T1, Merkel cell polyomavirus T antigen …; test: multimer staining
[3] = biological target: T2, Merkel cell polyomavirus T antigen …; test: multimer staining
[4] = biological target: T3, Merkel cell polyomavirus T antigen KLL …; test: IFN-g ELISA; T2 + peptide titration; T cell clone or line

| Binder | EC50 of tLTAg plasmid DNA [1] [ng/mL] | binding result [2] | binding result [3] | EC50 of peptide [4] |
| --- | --- | --- | --- | --- |
| B1 | 5400 | – | – | – |
| B2 | – | recognises | recognises | 0.015 ng/mL and 0.035 ng/mL |
| B3 | 5600 | – | – | 0.31 ng/mL |
| B4 | – | recognises | – | – |
| B5 | – | recognises | – | 0.11 ng/mL and 0.054 ng/mL |
| B6 | 3900 | – | – | – |
| B7 | – | recognises | recognises | 0.12 ng/mL |
| B8 | – | recognises | recognises | – |
| B9 | – | recognises | recognises | – |
| B10 | 270000 | – | – | – |
| B11 | – | recognises | recognises | 1.1 ng/mL |
| B12 | 4200 | – | – | – |
| B13 | – | recognises | recognises | 0.12 ng/mL and 0.24 ng/mL |
| B14 | – | recognises | recognises | 0.0094 ng/mL and 0.028 ng/mL |
| B15 | – | recognises | – | – |
| B16 | – | recognises | recognises | – |
| B17 | 320 | – | – | 0.43 ng/mL and 0.5 ng/mL and 0.47 ng/mL |

| Binder | EC50 of tLTAg plasmid DNA [1] [ng/mL] | binding result [2] | binding result [3] | EC50 of peptide [4] |
| --- | --- | --- | --- | --- |
| B18 | – | recognises | – | – |
| B19 | – | recognises | recognises | 0.21 ng/mL |
| B20 | – | recognises | recognises | 1.2 ng/mL |
| B21 | – | recognises | recognises | 0.7 ng/mL |
| B22 | 1000 | – | – | 0.022 ng/mL and 0.013 ng/mL |
| B23 | – | recognises | – | – |
| B24 | – | recognises | recognises | – |
| B25 | – | recognises | recognises | 0.92 ng/mL |
| B26 | 11000 | – | – | 0.12 ng/mL |
| B27 | – | recognises | – | – |
| B28 | – | recognises | – | – |
| B29 | 140000 | – | – | – |
| B30 | 3300 | – | – | 0.12 ng/mL and 0.16 ng/mL |
| B31 | 14000 | – | – | 0.31 ng/mL |
| B32 | – | recognises | – | 0.017 ng/mL and 0.012 ng/mL |
| B33 | – | recognises | – | – |
| B34 | – | recognises | recognises | 0.11 ng/mL |
